Experimental data reported in publication PMC5522446, “The N-terminal dimerization is required for TDP-43 splicing activity” (Scientific Reports, 2017).
Positions count from the first letter of the chain named. Blank lines part the entries; values can stand above or below the molecule they belong to.

Key:
[1] = target: TDP(1–77)-C39/C50S (human) (UniProt Q13148); assay: SEC; protein at 10 µM; Superdex-200 Increase 10/300 GL; Buffer A; room temperature
[2] = target: TDP(1–77)-C39/C50S (human) (UniProt Q13148); assay: SEC; protein at 250 µM; Superdex-200 Increase 10/300 GL; Buffer A; room temperature
[3] = target: TDP(1–77)-C39/C50S (human) (UniProt Q13148); assay: SEC; protein at 50 µM; Superdex-200 Increase 10/300 GL; Buffer A (25 mM Tris-HCl, pH 8.0, 150 mM NaCl); room temperature; apparent MW from standard proteins
[4] = target: TDP(1–77)-C39/C50S (human) (UniProt Q13148); assay: SEC; protein at 500 µM; Superdex-200 Increase 10/300 GL; Buffer A; room temperature
[5] = target: the molecule itself; assay: SEC; protein at 50 µM; Superdex-200 Increase 10/300 GL; Buffer A (25 mM Tris-HCl, pH 8.0, 150 mM NaCl); room temperature; apparent MW from standard proteins
[6] = target: the molecule itself; assay: SEC; series of different protein concentrations (Fig. S1, Fig. S2D,E); Buffer A; room temperature
[7] = target: the molecule itself; assay: SEC; protein at 500 µM; Superdex-200 Increase 10/300 GL; Buffer A; room temperature
[8] = target: the molecule itself; assay: SEC; protein at 250 µM; Superdex-200 Increase 10/300 GL; Buffer A; room temperature
[9] = target: the molecule itself; assay: SEC; protein at 50 µM; Superdex-200 Increase 10/300 GL; Buffer A (25 mM Tris-HCl, pH 8.0, 150 mM NaCl); room temperature; apparent MW from standard proteins; remark: listed apart in the source
[10] = target: the molecule itself; assay: SEC; protein at 500 µM treated with 5 mM DTT; Superdex-200 Increase 10/300 GL; Buffer A; room temperature
[11] = target: the molecule itself; assay: SEC; protein at 10 µM; Superdex-200 Increase 10/300 GL; Buffer A; room temperature

- stoichiometry N [1]: 1.7
- stoichiometry N [2]: 1.8
- stoichiometry N [3]: 1.7
- stoichiometry N [4]: 1.8
Molecule: TDP(1–77)-C39/C50S (from UniProt Q13148 1-77) (domain or fragment)

B1: TDP(1–89) (domain or fragment, human, UniProt Q13148 1-89, looked up)
chain: MSEYIRVTEDENDEPIEIPSEDDGTVLLSTVTAQFPGACGLRYRNPVSQCMRGVRLVEGILHAPDAGWGNLVYVVNYPKDNKRKMDETD
notes: TDP-43, human, residues 1-89; pET22b, Nde I/Xho I; C-terminal His6 surmised; Printed theoretical MW 11.1 kDa; also called TDP-43 NTD; source: E. coli BL21 (DE3), purified (Ni2+-NTA, SEC)
- stoichiometry N [5]: 2.4

B2: TDP(1–89) Cys mutant (Cys39 and Cys50 to Ser) (domain or fragment, human, UniProt Q13148 1-89, looked up)
chain: B1 chain with C39S, C50S
notes: TDP-43, human, residues 1-89 with Cys39 and Cys50 mutated to Ser; pET22b, Nde I/Xho I; C-terminal His6 surmised; also called TDP(1–89) mutant; source: E. coli BL21 (DE3), purified (Ni2+-NTA, SEC)
- binding result [6]: binds

B3: TDP(1–77) (domain or fragment, human, UniProt Q13148 1-77, looked up)
chain: MSEYIRVTEDENDEPIEIPSEDDGTVLLSTVTAQFPGACGLRYRNPVSQCMRGVRLVEGILHAPDAGWGNLVYVVNY
notes: TDP-43, human, residues 1-77; pET22b, Nde I/Xho I; C-terminal His6 surmised; Printed theoretical MW 9.6 kDa; PDB 2N4P (cited) is His6-TDP(1–77); also called N-terminal 77-residue construct; wild-type TDP(1–77); source: E. coli BL21 (DE3), purified (Ni2+-NTA, SEC)
- stoichiometry N [7]: 2.3
- stoichiometry N [8]: 2.1
- stoichiometry N [9]: 1.8
- stoichiometry N [10]: 2.4
- stoichiometry N [11]: 1.7
